Results published in patent US20240376196A1 (HEFEI TG IMMUNOPHARMA, published 2024).

Legend:
[1] = target: T1, human CD112 extracellular region His tag fusion protein (human, UniProt Q92692 32-360); test: competition ELISA, CD112-His coated, blocked ligand CD226-Biotin, HRP-streptavidin, OD450
T1 construct: Bought from Acro; only its extracellular domain stood in the assay; also called CD112-His; CD112 extracellular domain His tag fusion protein; not shown: His tag
T1 sequence: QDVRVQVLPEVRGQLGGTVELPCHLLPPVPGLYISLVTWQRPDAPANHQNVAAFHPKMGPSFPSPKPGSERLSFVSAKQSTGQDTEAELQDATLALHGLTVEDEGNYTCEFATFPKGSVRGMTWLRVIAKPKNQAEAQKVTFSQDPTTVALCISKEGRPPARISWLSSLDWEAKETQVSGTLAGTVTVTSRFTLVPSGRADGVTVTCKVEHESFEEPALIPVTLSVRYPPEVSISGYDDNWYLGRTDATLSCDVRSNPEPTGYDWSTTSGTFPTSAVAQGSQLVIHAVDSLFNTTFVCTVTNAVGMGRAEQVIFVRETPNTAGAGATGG
Experimental: (§1) The ELISA experiment was used to determine the blocking characteristic of the murine antibody CD112 9G11 antibody.
(§2) The human CD112-His protein (purchased from Acro) was diluted to 2 μg/ml with PBS buffer and added to a 96-well plate in a volume of 100 μl/well and left overnight at 4° C. The PBS buffer solution was sucked off from the 96-well plate. The plate was washed 6 times with PBST (pH 7.2, PBS containing 0.1 vol % of Tween 20) buffer solution. 200 μL of PBS containing 10% BSA was added per well and incubated at 37° C. for 2 hours for blocking. The blocking solution was removed and the plate was washed 6 times with PBST. […] The reaction system was removed. The plate was washed 6 times with PBST. 100 μL of HRP (horseradish peroxidase)-labeled Streptavidin secondary (purchased from Southern Biotech) antibody diluted with PBST containing 0.05% BSA (diluted at 1:5000) per well and incubated for 1 h at 37° C. The plate was washed 6 times with PBST, and 80 μL of TMB (tetramethylbenzidine) was added per well. After 3 min of incubation at room temperature, 80 μL of 4M sulfuric acid was added per well to terminate the reaction. The absorbance was read at […] with a microplate reader.

[2] = target: T1, human CD112 extracellular region His …; test: competition ELISA, CD112-His coated, blocked ligand TIGIT-Biotin, HRP-streptavidin, OD450
Experimental: as §1, §2

[3] = target: T1, human CD112 extracellular region His …; test: competition ELISA, CD112-His coated, blocked ligand CD112R-Fc-Biotin, HRP-streptavidin, OD450
Experimental: as §1, §2

IC50 (read off the curve) [1]: ~6 µg/mL
IC50 (read off the curve) [2]: ~0.5 µg/mL
IC50 (read off the curve) [3]: ~0.5 µg/mL
B1: murine monoclonal antibody 9G11 (antibody, mouse IgG2a, kappa)
heavy: DVKLVESGGGLVKLGGSLKLSCAASGFTFSSYYMSWVRQTPEKRLELVAAINSQGGSTYYPDTVKGRFTISRDNAKNTLYLQMSSLKSEDTGLYYCARSDYDWAWFAYWGQGTLVTVSAAKTTAPSVYPLAPVCGDTTGSSVTLGCLVKGYFPEPVTLTWNSGSLSSGVHTFPAVLQSDLYTLSSSVTVTSSTWPSQSITCNVAHPASSTKVDKKIEPRGPTIKPCPPCKCPAPNLLGGPSVFIFPPKIKDVLMISLSPIVTCVVVDVSEDDPDVQISWFVNNVEVHTAQTQTHREDYNSTLRVVSALPIQHQDWMSGKEFKCKVNNKDLPAPIERTISKPKGSVRAPQVYVLPPPEEEMTKKQVTLTCMVTDFMPEDIYVEWTNNGKTELNYKNTEPVLDSDGSYFMYSKLRVEKKNWVERNSYSCSVVHEGLHNHHTTKSFSRTPGK
light: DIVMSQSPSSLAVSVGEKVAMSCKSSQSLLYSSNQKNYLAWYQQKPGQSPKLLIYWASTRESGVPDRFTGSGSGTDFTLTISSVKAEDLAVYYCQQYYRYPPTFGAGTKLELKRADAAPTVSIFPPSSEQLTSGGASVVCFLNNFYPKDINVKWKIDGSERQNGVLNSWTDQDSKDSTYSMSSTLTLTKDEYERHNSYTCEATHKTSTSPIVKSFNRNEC
notes: also called 9G11 antibody; CD112 murine antibody 9G11
